Source: patent publication US20110086768A1

Biological target: FLAG-transferrin fusion (pREX1235): modified transferrin (mTf) with a FLAG Tag at the N-terminus and the human GPI sequence at the C-terminus, expressed in HEK-293 cells (human) (UniProt P02787)
Test: FACS of transfected HEK-293 cells with mouse anti-FLAG BioM2 and goat anti-mouse-APC

UniProt P02787, sequence (P02787 other isoform, or with tags, fused parts or gaps limits assumed): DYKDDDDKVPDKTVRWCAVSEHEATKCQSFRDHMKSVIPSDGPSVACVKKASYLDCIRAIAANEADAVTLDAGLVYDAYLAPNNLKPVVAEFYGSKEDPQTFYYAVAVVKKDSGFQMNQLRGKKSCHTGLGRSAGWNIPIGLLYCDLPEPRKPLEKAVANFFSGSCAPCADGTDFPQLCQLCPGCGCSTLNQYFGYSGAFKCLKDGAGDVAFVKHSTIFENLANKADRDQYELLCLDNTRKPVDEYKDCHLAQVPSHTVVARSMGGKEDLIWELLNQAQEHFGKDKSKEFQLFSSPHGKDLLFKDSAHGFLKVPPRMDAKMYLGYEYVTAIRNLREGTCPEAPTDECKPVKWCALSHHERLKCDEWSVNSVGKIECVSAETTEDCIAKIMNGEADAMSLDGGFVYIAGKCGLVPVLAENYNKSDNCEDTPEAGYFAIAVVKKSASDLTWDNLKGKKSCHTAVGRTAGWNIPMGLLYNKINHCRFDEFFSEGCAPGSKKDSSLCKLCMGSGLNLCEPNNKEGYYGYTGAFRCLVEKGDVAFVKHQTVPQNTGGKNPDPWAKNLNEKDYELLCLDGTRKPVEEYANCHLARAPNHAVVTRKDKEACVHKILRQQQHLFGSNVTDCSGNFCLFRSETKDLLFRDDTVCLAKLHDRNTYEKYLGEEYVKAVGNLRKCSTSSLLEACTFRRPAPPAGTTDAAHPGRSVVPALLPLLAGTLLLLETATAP

- fold increase in staining relative to mock-transfected cells: 4 fold
Substance: mouse anti-FLAG BioM2 (Sigma) (antibody)
